“Also recorded” adds a separate entry of the source. Where two headings read alike, the source gives them in different places.
Assay: Self-assembly and size of CPP-peptide/TLR ligand nanoparticles (DLS, AFM)
Format: physicochemical
Procedure: FIG. 3A-1, FIG. 3A-2, FIG. 3B-1, FIG. 3B-2, FIG. 3C-1 and FIG. 3C-2 show self-assembled nanoparticles of TAT-TRP2 with CpG and MPLA (CM for short). […] AFM analysis indicates the size of cross section of the nanoparticle;
Grey bars indicate unstable/polydispersed complex with large PDI (PDI>0.5);
While both CPP-antigen peptide (10 mM) and CpG (10 mM) were soluble in PBS, but once mixed (1:1), precipitations or aggregates were observed. These aggregates were round nanoparticles, with a diameter of […] in size. The self-assembly was believed to occur through electric interaction of positively charged CPPs with negatively charged molecules, as well as hydrophobic interaction between the peptides themselves and monophosphoryl lipid A (MPLA).
MPLA and poly I:C were completely dissolved in sterile ultrapure water at a concentration of 1 mg/mL. To prepare the TAT-peptide vaccine nanoparticles, CpG, MPLA, and poly I:C of indicated volume (shown in Table 3) were mix thoroughly in ultrapure water or buffer by intensive vortex.
Self-assembly of the TAT-peptide nanoparticles was triggered by dropwise addition of TAT-peptide with ultrasonication in iced water bath within 1 min. […] The hydrophobic C-terminus of TRP2 peptide forms a hydrophobic core together with the MPLA via hydrophobic interactions.
Grey bars indicate unstable/polydispersed complexes with large PDI (PDI>0.5).

| Sequence | complex / nanoparticle formation with CpG and MPLA (AFM) | complex / nanoparticle formation with CpG and MPLA (AFM) (listed as TRP2) |
| --- | --- | --- |
| SYVDFFVWL [TRP2 peptide] | failed to form complex with CpG-MPLA and formed long fibers; also recorded: failed to form complexes | could not form a particle |
| YGRKKRRQRRRSYVDFFVWL [TAT-TRP2] | formed tight complexes |  |
